# According to patent US20250011397A1 (HOSPITAL FOR SICK CHILDREN, published 2025):
# Where a chain is given by its changes, count along the chain named. Values joined by “and” are separate entries in the source; they are usually repeats but may differ in a detail not shown here. Identical values can stand only once.
# B1: mAb 236 (antibody, V domains shown)
# VH: QVQLVQSGAEVKKPGASVKVSCKASGGTFTSYGINWVRQAPGQGLEWMGWMNPNSGNTGYAQKFQGRVTMTRDTSTSTVYMELSSLRSEDTAVYYCASRGIQLLPRGMDVWGQGTTVTVSS
# VL: not shown
# notes: also called IgG 236
# B2: MB 82 (other)
# heavy: QVQLVQSGAEVKKPGASVKVSCKASGGSFSTSAFYWVRQAPGQGLEWMGWINPYTGGTNYAQKFQGRVTMTRDTSTSTVYMELSSLRSEDTAVYYCARSRALYGSGSYFDYWGQGTLVTVSSASTKGPSVFPLAPSSKSTSGGTAALGCLVKDYFPEPVTVSWNSGALTSGVHTFPAVLQSSGLYSLSSVVTVPSSSLGTQTYICNVNHKPSNTKVDKKVEPKSC
# light: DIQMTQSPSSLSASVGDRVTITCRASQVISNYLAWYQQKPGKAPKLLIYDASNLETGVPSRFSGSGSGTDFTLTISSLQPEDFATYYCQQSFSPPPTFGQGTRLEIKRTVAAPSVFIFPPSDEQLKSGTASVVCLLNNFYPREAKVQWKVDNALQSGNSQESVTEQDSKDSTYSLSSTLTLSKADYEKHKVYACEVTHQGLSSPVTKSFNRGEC
# B3: mAb 254 (antibody, V domains shown)
# VH: EVQLLESGGGLVQPGGSLRLSCAASGFTFSSSAMHWVRQAPGKGLEWVSAIGTGGDTYYADSVKGRFTISRDNSKNTLYLQMNSLRAEDTAVYYCAREGDGYNFYFDYWGQGTLVTVSS
# VL: DIQMTQSPSSLSASVGDRVTITCRASQGISSYLAWYQQKPGKAPKLLIYDASSLQIGVPSRFSGSGSGTDFTLTISSLQPEDFATYYCLQSYSTPPWTFGQGTKVEIKR
# notes: also called IgG 254
# B4: mAb 64 (antibody, V domains shown)
# VH: EVQLLESGGGLVQPGGSLRLSCAASGFPFSQHGMHWVRQAPGKGLEWVSAIDRSGSYIYYADSVKGRFTISRDNSKNTLYLQMNSLRAEDTAVYYCARDTYGGKVTYFDYWGQGTLVTVSS
# VL: DIQMTQSPSSLSASVGDRVTITCRASQGISSHLAWYQQKPGKAPKLLIYDASNLETGVPSRFSGSGSGTDFTLTISSLQPEDFATYYCQQTYSTPWTFGQGTKVEIKR
# notes: also called IgG 64
# B5: mAb 82 (antibody, V domains shown)
# VH: QVQLVQSGAEVKKPGASVKVSCKASGGSFSTSAFYWVRQAPGQGLEWMGWINPYTGGTNYAQKFQGRVTMTRDTSTSTVYMELSSLRSEDTAVYYCARSRALYGSGSYFDYWGQGTLVTVSS
# VL: B4 VL with G28V, S31N, H32Y, T91S, Y92F, T94P, W96P, K103R, V104L
# notes: also called IgG 82
# B6: MB 324 (other)
# heavy: QVQLVQSGAEVKKPGASVKVSCKASGGTFNNYGISWVRQAPGQGLEWMGWMNPNSGNTGYAQKFQGRVTMTRDTSTSTVYMELSSLRSEDTAVYYCARVGDYGDYIVSPFDLWGRGTLVTVSSASTKGPSVFPLAPSSKSTSGGTAALGCLVKDYFPEPVTVSWNSGALTSGVHTFPAVLQSSGLYSLSSVVTVPSSSLGTQTYICNVNHKPSNTKVDKKVEPKSC
# light: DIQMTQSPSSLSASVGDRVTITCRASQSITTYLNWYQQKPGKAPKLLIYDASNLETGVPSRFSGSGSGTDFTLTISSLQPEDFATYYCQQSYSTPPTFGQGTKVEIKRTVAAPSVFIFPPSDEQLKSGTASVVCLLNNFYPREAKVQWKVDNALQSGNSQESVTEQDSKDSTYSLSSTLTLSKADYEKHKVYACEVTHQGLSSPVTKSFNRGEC
# B7: mAb 120 (antibody, V domains shown)
# VH: QVQLVQSGAEVKKPGASVKVSCKASGYTFTSYDINWVRQAPGQGLEWMGMIDPSGGSTSYAQKFQGRVTMTRDTSTSTVYMELSSLRSEDTAVYYCAKDFGGGTRYDYWYFDLWGRGTLVTVSS
# VL: EIVMTQSPATLSVSPGERATLSCRASQSVSSRYLAWYQQKPGQAPRLLIYGASTRATGIPARFSGSGSGTEFTLTISSLQSEDFAVYYCQQYYTTPRTFGQGTRLEIKR
# notes: also called IgG 120
# B8: MB 46 (other)
# heavy: EVQLLESGGGLVQPGRSLRLSCAASGFTFSSYAMSWVRQAPGKGLEWVSTIYSGGSTYYADSVKGRFTISRDNSKNTLYLQMNSLRAEDTAVYYCARGDSRDAFDIWGQGTMVTVSSASTKGPSVFPLAPSSKSTSGGTAALGCLVKDYFPEPVTVSWNSGALTSGVHTFPAVLQSSGLYSLSSVVTVPSSSLGTQTYICNVNHKPSNTKVDKKVEPKSC
# light: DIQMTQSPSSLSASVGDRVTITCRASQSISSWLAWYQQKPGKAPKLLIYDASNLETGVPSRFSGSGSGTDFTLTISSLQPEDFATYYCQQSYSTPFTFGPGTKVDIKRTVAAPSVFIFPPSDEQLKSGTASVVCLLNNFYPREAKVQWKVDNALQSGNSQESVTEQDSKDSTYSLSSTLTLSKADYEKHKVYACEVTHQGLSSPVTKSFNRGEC
# B9: mAb 192 (antibody, V domains shown)
# VH: QVQLVQSGAEVKKPGSSVKVSCKASGGTFSSYAISWVRQAPGQGLEWMGWINPNSGGANYAQKFQGRVTITADESTSTAYMELSSLRSEDTAVYYCSTYYYDSSGYSTDYWGQGTLVTVSS
# VL: DIVMTQSPLSLPVTPGEPASISCRSSQSLLHSNGYNYLDWYLQKPGQSPQLLIYAASSLQSGVPDRFSGSGSGTDFTLKISRVEAEDVGVYYCMQALQTPYTFGQGTKLEIKR
# B10: mAb 180 (antibody, V domains shown)
# VH: QVQLVQSGAEVKKPGSSVKVSCKASGYTFTSYAMHWVRQAPGQGLEWMGRISPRSGGTKYAQRFQGRVTITADESTSTAYMELSSLRSEDTAVYYCAREAVAGTHPQAGDFDLWGRGTLVTVSS
# VL: B9 VL with M94Q, A96Y, L97Y, Q98S, T99S
# B11: mAb 158 (antibody, V domains shown)
# VH: QVQLVQSGAEVKKPGASVKVSCKASGYTFTGYYMHWVRQAPGQGLEWMGWINPLNGGTNFAPKFQGRVTMTRDTSTSTVYMELSSLRSEDTAVYYCARDPGGSYSNDAFDIWGQGTLVTVSS
# VL: DIQMTQSPSSLSASVGDRVTITCRASQSISRYLNWYQQKPGKAPKLLIYDASNLESGVPSRFSGSGSGTDFTLTISSLQPEDFATYYCQQANSFPLTFGGGTKVDIKR
# notes: also called IgG 158
# B12: mAb 52 (antibody, V domains shown)
# VH: QVQLVQSGAEVKKPGSSVKVSCKASGYTFTSYGISWVRQAPGQGLEWMGGIIPMFGTTNYAQKFQGRVTITADKSTSTAYMELSSLRSEDTAVYYCARDRGDTIDYWGQGTLVTVSS
# VL: B11 VL with S28G, R31N, Y32N, D50A, N53S, A91G, S93G, G100P
# notes: also called IgG 52; antibody 52
# B13: mAb 324 (antibody, V domains shown)
# VH: QVQLVQSGAEVKKPGASVKVSCKASGGTFNNYGISWVRQAPGQGLEWMGWMNPNSGNTGYAQKFQGRVTMTRDTSTSTVYMELSSLRSEDTAVYYCARVGDYGDYIVSPFDLWGRGTLVTVSS
# VL: B4 VL with G28S, S30T, S31T, H32Y, A34N, T91S, W96P
# notes: also called IgG 324
# B14: mAb 46 (antibody, V domains shown)
# VH: EVQLLESGGGLVQPGRSLRLSCAASGFTFSSYAMSWVRQAPGKGLEWVSTIYSGGSTYYADSVKGRFTISRDNSKNTLYLQMNSLRAEDTAVYYCARGDSRDAFDIWGQGTMVTVSS
# VL: B4 VL with G28S, H32W, T91S, W96F, Q100P, E105D
# notes: also called IgG 46; antibody 46
# Molecular target: T1, SARS-CoV-2 Spike on HIV-based pseudotyped virus (Spike plasmid BEI NR52310) (SARS-CoV-2, UniProt P0DTC2 14-1273)
# Assay: cell-based or functional assay
row,Binder,Median IC50 (PsV neutralization)
1,B1,0.057 µg/mL and 0.38 nM
2,B2,0.0022 µg/mL and 0.95 pM
3,B3,> 50 µg/mL and > 333 nM
4,B4,> 50 µg/mL and > 333 nM
5,B5,1.6 µg/mL and 11 nM
6,B6,0.0009 µg/mL and 0.39 pM
7,B7,> 50 µg/mL and > 333 nM
8,B8,0.0024 µg/mL and 1 pM
9,B9,> 50 µg/mL and > 333 nM
10,B10,> 50 µg/mL and > 333 nM
11,B11,> 50 µg/mL and > 333 nM
12,B12,0.61 µg/mL and 4.1 nM
13,B13,0.78 µg/mL and 5.2 nM
14,B14,2.1 µg/mL and 14 nM

# Molecular target: Spike of authentic SARS-CoV-2/SB2-P4-PB virus (SARS-CoV-2, UniProt P0DTC2 14-1273)
# Assay: cell-based or functional assay
Binder,"IC50 SARS-CoV2/SB2-P4-PB (µg/mL), IgG [µg/mL]","IC50 SARS-CoV2/SB2-P4-PB (µg/mL), MB [µg/mL]"
B1,5.5,
B2,,0.21
B6,,0.024
B8,,0.027
B12,6.2,
B13,21,
B14,19,

# Molecular target: T1, SARS-CoV-2 Spike on HIV-based …
# Assay: cell-based or functional assay
# Remark: another data set of the same source
Binder,"IC50 SARS-CoV2 PsV (µg/mL), IgG [µg/mL]","IC50 SARS-CoV2 PsV (µg/mL), MB [µg/mL]"
B1,0.057,
B2,,0.0022
B3,> 50,
B4,> 50,
B5,1.6,
B6,,0.0009
B7,> 50,
B8,,0.0024
B9,> 50,
B10,> 50,
B11,> 50,
B12,0.55,
B13,0.78,
B14,2.1,
